Where two headings read alike, the source gives them in different places.

Series [1] addresses zebrafish Sts (zfSts, zfSts_tv1) (Danio rerio, UniProt A0ACD6B647). As to the kind of experiment: HPLC of released estrone. It counts as biochemical. The following applies: 5 μM E1-sulfate, 28°C, 15 min, pH 7.0, 10 mM Ca2+; irreversible inhibitor.
For series [2], the target named is T1, human STS (Homo sapiens, UniProt P08842).
T1 sequence (P08842 22-583): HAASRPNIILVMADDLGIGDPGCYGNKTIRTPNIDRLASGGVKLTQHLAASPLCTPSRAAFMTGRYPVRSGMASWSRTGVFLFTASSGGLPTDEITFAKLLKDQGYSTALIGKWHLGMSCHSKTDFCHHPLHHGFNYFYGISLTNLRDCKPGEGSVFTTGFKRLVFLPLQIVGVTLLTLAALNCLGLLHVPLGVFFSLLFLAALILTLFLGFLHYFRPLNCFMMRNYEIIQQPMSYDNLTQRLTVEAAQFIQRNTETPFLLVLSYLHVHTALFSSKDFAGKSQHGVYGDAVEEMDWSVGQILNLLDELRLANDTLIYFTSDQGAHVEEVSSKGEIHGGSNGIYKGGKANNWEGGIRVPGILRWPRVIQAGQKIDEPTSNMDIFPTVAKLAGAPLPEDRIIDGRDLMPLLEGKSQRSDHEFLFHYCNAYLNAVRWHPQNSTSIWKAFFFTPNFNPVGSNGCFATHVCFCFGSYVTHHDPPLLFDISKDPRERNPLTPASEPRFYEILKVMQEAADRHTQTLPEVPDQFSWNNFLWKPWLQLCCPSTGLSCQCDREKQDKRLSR
As to conditions: 5 μM E1-sulfate, 37°C, 15 min, pH 7.0, 10 mM Ca2+; irreversible inhibitor.

In series [3] the target is zebrafish Sts (zfSts, zfSts_tv1) (Danio rerio, UniProt A0ACD6B647, I88V/L437F/N388K). As to the kind of experiment: HPLC of released estrone. It counts as biochemical. The following applies: read-out: % inhibition at 0.1 μM.
Series [4] deals with T1, human STS. As to the kind of experiment: HPLC of released estrone. It counts as biochemical. The following applies: 5 μM E1-sulfate, 37°C, 15 min, pH 7.0, 10 mM Ca2+; irreversible inhibitor.
Series [5] relates to C[C@]12CC[C@@H]3c4ccc(OS(=O)(=O)O)cc4CC[C@H]3[C@@H]1CCC2=O. As to the kind of experiment: cells, lysate or membranes. As to conditions: 28°C, pH 7.0 Hepes, 10 mM Ca2+, 1 mM DTT, labelled compound.
Series [6] has as its system [H][C@@]12CC=C3C[C@@H](OS(=O)(=O)O)CC[C@]3(C)[C@@]1([H])CC[C@]1(C)C(=O)CC[C@@]21[H]. As to the kind of experiment: cells, lysate or membranes. The following applies: 28°C, pH 7.0 Hepes, 10 mM Ca2+, 1 mM DTT, labelled compound.
The test system of series [7] is CC(=O)[C@H]1CC[C@H]2[C@@H]3CC=C4C[C@@H](OS(=O)(=O)O)CC[C@]4(C)[C@H]3CC[C@]12C. As to the kind of experiment: cells, lysate or membranes. As to conditions: 28°C, pH 7.0 Hepes, 10 mM Ca2+, 1 mM DTT, labelled compound.
In series [8] the test system is [H][C@@]12CCc3cc(OS(=O)(=O)O)ccc3[C@@]1([H])CC[C@]1(C)[C@@H](O)CC[C@@]21[H]. Nature of the series: cells, lysate or membranes. As to conditions: 28°C, pH 7.0 Hepes, 10 mM Ca2+, 1 mM DTT, labelled compound.
Series [9] deals with CC(C)CCC[C@@H](C)[C@H]1CC[C@H]2[C@@H]3CC=C4C[C@@H](OS(=O)(=O)O)CC[C@]4(C)[C@H]3CC[C@]12C. Nature of the series: cells, lysate or membranes. The following applies: 28°C, pH 7.0 Hepes, 10 mM Ca2+, 1 mM DTT, labelled compound.

zebrafish Sts (zfSts, zfSts_tv1) (Danio rerio, UniProt A0ACD6B647, I88V/L437F/N388K), sequence (A0ACD6B647 21-584, stated change not applied): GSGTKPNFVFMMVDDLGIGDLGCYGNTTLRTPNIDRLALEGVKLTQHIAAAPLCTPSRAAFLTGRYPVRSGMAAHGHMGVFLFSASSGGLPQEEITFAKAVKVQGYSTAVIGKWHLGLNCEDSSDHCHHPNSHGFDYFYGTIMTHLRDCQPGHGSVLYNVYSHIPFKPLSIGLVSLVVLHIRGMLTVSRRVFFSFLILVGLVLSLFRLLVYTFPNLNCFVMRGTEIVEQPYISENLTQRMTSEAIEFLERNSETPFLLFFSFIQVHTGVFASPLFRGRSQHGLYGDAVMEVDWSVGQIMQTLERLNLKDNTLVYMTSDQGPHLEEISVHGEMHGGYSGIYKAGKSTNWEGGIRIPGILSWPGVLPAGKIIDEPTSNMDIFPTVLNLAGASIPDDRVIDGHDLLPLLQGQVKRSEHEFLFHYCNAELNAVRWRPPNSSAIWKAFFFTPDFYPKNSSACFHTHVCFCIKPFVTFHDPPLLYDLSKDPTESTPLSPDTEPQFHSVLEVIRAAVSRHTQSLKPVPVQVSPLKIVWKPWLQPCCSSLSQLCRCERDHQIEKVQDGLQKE
zebrafish Sts (zfSts, zfSts_tv1) (Danio rerio, UniProt A0ACD6B647), sequence (A0ACD6B647 21-584): as the sequence (A0ACD6B647 21-584, stated change not applied) above

Consider `C[C@]12CC[C@@H]3c4ccc(OS(N)(=O)=O)cc4CC[C@H]3[C@@H]1CCC2=O` [EMATE], for which the “% inhibition at 0.1 μM” value in [1] was “EMATE also inhibited the activity zebrafish Sts_tv1 and human STS”; at human STS [2], “EMATE also inhibited the activity zebrafish Sts_tv1 and human STS”.
For `NS(=O)(=O)Oc1ccc2c3c(c(=O)oc2c1)CCCCC3` [STX64], in [3], the inhibition at 0.1 µM worked out at 88.3%. Moreover, the “% inhibition at 0.1 μM” value at human STS [4] was 93%.
Take “zebrafish Sts (zfSts, zfSts_tv1) (Danio rerio; I88V/L437F/N388K)”: the Michaelis-Menten constant (Km) in series [5] was 4.32 ± 0.49 µM; in series [6] it was 19.38 ± 3.07 µM; in series [7] it was 0.18 ± 0.01 µM; in [8], 2.07 ± 0.29 µM; in series [9], 0.62 ± 0.06 µM. Besides, the Vmax was 0.00126 µmol/min/mg in [5]; 0.000374 µmol/min/mg in series [6]; 0.000104 µmol/min/mg in series [7]; 0.00107 µmol/min/mg in [8]; 8.12e-05 µmol/min/mg in series [9].
